B1: V5-Par6A (wild type) [not stated] / HA-Cdc42(G12V) [not stated] (parent complex)
chain 1: MARPQRTPARSPDSIVEVKSKFDAEFRRFALPRASVSGFQEFSRLLRAVHQIPGLDVLLGYTDAHGDLLPLTNDDSLHRALASGPPPLRLLVQKRAEADSSGLAFASNSLQRRKKGLLLRPVAPLRTRPPLLISLPQDFRQVSSVIDVDLLPETHRRVRLHKHGSDRPLGFYIRDGMSVRVAPQGLERVPGIFISRLVRGGLAESTGLLAVSDEILEVNGIEVAGKTLDQVTDMMVANSHNLIVTVKPANQRNNVVRGASGRLTGPPSAGPGPAEPDSDDDSSDLVIENRQPPSSNGLSQGPPCWDLHPGCRHPGTRSSLPSLDDQEQASSGWGSRIRGDGSGFSL
chain 2: not shown

Variants of: B1
Experiment: co-immunoprecipitation (IP: GFP), quantified blot; HEK293T cells; HA-Cdc42(G12V) recovered in the GFP (YFP-Tuba) IP when co-expressed with the Par6A variant; n = 4; parent: 1; read off a plot

ratio to parent	Variant
~0.21	chain 1 I133A, chain 1 S134A

Source: article PMC6224091 (2018)
